# Source: PMC11278340
# T1: murine CCL22 (Mus musculus, UniProt O88430 25-92)
# T1 sequence: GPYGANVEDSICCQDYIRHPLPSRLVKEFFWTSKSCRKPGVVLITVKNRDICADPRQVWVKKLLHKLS
# T2: human CCL22 (Homo sapiens, UniProt O00626 25-93)
# T2 sequence: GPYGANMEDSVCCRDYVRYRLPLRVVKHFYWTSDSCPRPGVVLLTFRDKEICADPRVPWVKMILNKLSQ
# T3: murine CCL17 (Mus musculus, UniProt Q9WUZ6 24-93)
# T3 sequence: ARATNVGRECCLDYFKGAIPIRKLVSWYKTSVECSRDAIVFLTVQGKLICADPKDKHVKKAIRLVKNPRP
# B1: AJ82 (ssDNA)
# DNA: GCTGTGTGACTCCTGCAAGCTGTGGAGTCGTCGTTCGGGTTATGGGGGATGGGGTTGAGTGGCAGCTGTATCTTGTCTCC
# B2: AJ102 (ssDNA)
# DNA: GCTGTGTGACTCCTGCAATAGGCGAGTGTGGGTGGGTGGGCGTTCTCAGTGGTTCTCAGTAGCAGCTGTATCTTGTCTCC
# How the values were obtained:
# murine CCL22 [1] = target: T1, murine CCL22; experiment: SPR
# human CCL17 = human CCL17 (Homo sapiens, UniProt Q92583 24-94); experiment: ELONA
# human CCL17, sequence (Q92583 24-94): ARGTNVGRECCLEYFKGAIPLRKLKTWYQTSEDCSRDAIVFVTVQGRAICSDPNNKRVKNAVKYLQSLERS
# human CCL22 = target: T2, human CCL22; experiment: ELONA
# murine CCL17 = target: T3, murine CCL17; experiment: ELONA
# murine CCL22 [2] = target: T1, murine CCL22; experiment: flow cytometry on CCL22 beads
Binder,Kd (murine CCL22 [1]) [nM],binding result (human CCL17),binding result (human CCL22),binding result (murine CCL17),Kd (murine CCL22 [2]) [nM]
B1,24.8,no binding,no binding,no binding,146
B2,10.7,no binding,no binding,no binding,147
TAGGCGAGTGTGGGTGGGTGGGCGTTCTC (ssDNA) [AJ102.29],–,–,–,–,63.6
